Laboratory results taken from patent publication US20220242939A1 (BIOARCTIC, published 2022).

Columns and labels:
[1] = target: T1, recombinant C-terminal ApoE fragment G200-HIS (ApoE-G200-H299-10xHIS) (human, UniProt P02649 218-317); assay: BLI (Octet RED384), G200-HIS captured on anti-HIS biosensor, antibody as analyte, 1:2 bivalent analyte fit
T1 construct: also called G200-HIS fragment
Procedure: Selectivity evaluation and KD determination of recombinant antibodies by bio-layer interferometry: Binding interactions between the N-terminal neo-epitope peptide G200 (SEQ ID NO:50) conjugated to BSA (ligand) and the recombinant antibodies produced in Example 11 (analyte) were evaluated using an Octet RED384 instrument (ForteBio). All analyzed proteins were diluted in 1×Kinetics Buffer (ForteBio).
To analyze the antibody-target interaction and to determine the binding affinity of the recombinant antibodies for recombinant C-terminal ApoE fragment G200-HIS (SEQ ID NO:48), anti-HIS capture biosensors (HIS1K) were used. In the first step (loading step), HIS-tagged recombinant C-terminal ApoE fragment was captured onto the surface of the biosensor. Next, a concentration gradient of pure antibodies was prepared ranging from 150 nM to 2.5 nM in 2-fold serial dilutions. Subsequently, the HIS1K biosensors with ligand were dipped in wells containing diluted antibodies, and the association phase was monitored for 600 s. For monitoring the dissociation phase, the HIS1K biosensors with ligand were moved to a well containing 1× Kinetics Buffer and the dissociation was monitored for 1000 s. For evaluation of the kinetic experiments, the Octet Data Analysis software was used. All values collected from interaction analysis were blank subtracted, and a 1:2 binding kinetics global fit model (bivalent analyte) was used for the evaluation.
Selectivity evaluation and KD determination of recombinant antibodies by bio-layer interferometry: Binding interactions between the recombinant G200 C-terminal ApoE fragment (ligand) and recombinant antibodies (analyte) were evaluated by using an Octet RED384 instrument (ForteBio).

[2] = target: T2, recombinant full-length ApoE4 (aa 1-299; SEQ ID NO:45; Abcam cat. no. ab50243) (human, UniProt P02649 19-317); assay: direct ELISA, second protocol; proteins coated at 0.1 uM, BSA peptides at 1 ug/ml; antibody in 3-fold dilutions from 3000 ng/ml; blank reduced OD 450 nm
T2 construct: Bought protein; also called recombinant ApoE4 full-length protein
T2 sequence (P02649 19-317 C130R limits assumed): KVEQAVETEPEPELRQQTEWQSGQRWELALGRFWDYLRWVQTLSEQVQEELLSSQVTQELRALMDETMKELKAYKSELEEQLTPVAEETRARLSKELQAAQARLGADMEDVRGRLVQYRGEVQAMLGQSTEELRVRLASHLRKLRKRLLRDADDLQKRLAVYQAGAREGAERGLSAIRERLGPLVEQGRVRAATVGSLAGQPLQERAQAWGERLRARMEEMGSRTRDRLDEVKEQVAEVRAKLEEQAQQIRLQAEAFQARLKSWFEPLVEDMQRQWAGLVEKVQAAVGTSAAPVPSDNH
Procedure: The screening was performed according to standard ELISA protocols. Briefly, 1 μg/ml solutions of BSA-conjugated neo-epitope peptides, recombinant C-terminal ApoE fragment, negative control peptide and full-length ApoE were prepared by dilution in PBS. 50 μl/well were added to an ELISA half-area 96 well microtiter plate, the plate was sealed with adhesive sealer and incubated over night at 4° C. After discarding the solution, the plates were blocked with 150 μl/well of protein-free blocking solution (Pierce) for 1 h at room temperature with shake (900 rpm). The plates were washed four times with washing buffer containing 0.28 mM NaH₂PO₄, 2.5 mM Na₂HPO₄, 150 mM NaCl, 0.1% TWEEN®-20 and 0.0075% Kathon CG. […] An anti-ApoE C-terminal antibody was used as a reference antibody (ApoE E-8 mouse monoclonal, cat. no. sc-393302; Santa Cruz Biotechnology). 50 μl/well were added into the ELISA plates and incubated for 2 h at room temperature with shake (900 rpm). The plates were washed four times as described previously. […] After another wash (as described previously), 50 μl/well of K-Blue® aqueous substrate (Neogen) were added, and the reaction was stopped after 5-15 min with 50 μl/well of 0.5 M […]. The optical density at 450 nm was read using an ELISA reader (Tecan). The optical density was plotted against the antibody concentration to generate concentration-response curves (FIG. 16).
(§1) These were added in the same molarity (0.1 μM) to provide an equal number of molecules available for binding by the antibodies (BSA-coupled peptides were coated at 1 μg/ml as before).

[3] = target: T1, recombinant C-terminal ApoE fragment …; assay: SPR (Biacore 8K), G200-HIS amine-coupled on CM5, antibody as analyte, bivalent analyte fit (kd1)
[4] = target: T1, recombinant C-terminal ApoE fragment …; assay: second direct ELISA, G200-HIS coated at 0.1 µM
Procedure: The screening was performed according to standard ELISA protocols. Briefly, 1 μg/ml solutions of BSA-conjugated neo-epitope peptides, recombinant C-terminal ApoE fragment, negative control peptide and full-length ApoE were prepared by dilution in PBS. 50 μl/well were added to an ELISA half-area 96 well microtiter plate, the plate was sealed with adhesive sealer and incubated over night at 4° C. After discarding the solution, the plates were blocked with 150 μl/well of protein-free blocking solution (Pierce) for 1 h at room temperature with shake (900 rpm). The plates were washed four times with washing buffer containing 0.28 mM NaH₂PO₄, 2.5 mM Na₂HPO₄, 150 mM NaCl, 0.1% TWEEN®-20 and 0.0075% Kathon CG. Generated recombinant antibodies of interest were serially diluted 3-fold with a starting dilution at 0.5 μg/ml (mixed 1:1 with dilution buffer: PBS with 0.1% BSA and 0.05% TWEEN®-20). An anti-ApoE C-terminal antibody was used as a reference antibody (ApoE E-8 mouse monoclonal, cat. no. sc-393302; Santa Cruz Biotechnology). 50 μl/well were added into the ELISA plates and incubated for 2 h at room temperature with shake (900 rpm). The plates were washed four times as described previously. […] After another wash (as described previously), 50 μl/well of K-Blue® aqueous substrate (Neogen) were added, and the reaction was stopped after 5-15 min with 50 μl/well of 0.5 M […]. The optical density at 450 nm was read using an ELISA reader (Tecan). The optical density was plotted against the antibody concentration to generate concentration-response curves (FIG. 16).
as §1

[5] = target: T1, recombinant C-terminal ApoE fragment …; assay: SPR (Biacore 8K), G200-HIS amine-coupled on CM5, antibody as analyte, bivalent analyte fit (KD1)

T1 sequence (P02649 other isoform, or with tags, fused parts or gaps limits assumed): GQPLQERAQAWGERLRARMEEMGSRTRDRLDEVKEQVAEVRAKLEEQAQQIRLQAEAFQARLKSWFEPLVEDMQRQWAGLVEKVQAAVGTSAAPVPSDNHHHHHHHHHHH

B1: 23D5, recombinant IgG2c antibody (antibody, V domains shown)
VH: EVQLVESGGGLVKPGGSLKLSCSASGFTFSRYAMSWVRQSPEKRLEWVAEINSGGSYSFYSDTVTGRFTISRDNAKNTLFLEMSSLRSEDTAIYYCARQLSGTDYYGTDYWGQGTSVTVSS
VL: DVLMTQTPLSLPVSHGDQASISCRSSQSLLYSNGNTYLEWYLQKPGQSPKLLIYKVSNRFSGVPDRFSGSGSGTDFTLKISRVEAEDLGVYYCFQGSHVPYTFGGGTKLEIK
In the case of B1, the Kd [1] is reported as 5.2 nM, the binding result [2] is reported as “no binding (tested: 3000 ng/ml)” and the koff [3] is reported as 0.0105 s⁻¹. It also gave an EC50 [4] of 0.0101 µg/mL and a Kd [5] of 299 nM.

B2: 4E6, recombinant IgG2c antibody (antibody, V domains shown)
VH: EVQLVESGGDLVKPGGSLKLSCAASGFTFSSYAMSWVRQSPEKRLEWVAEISGSGSRDHYTDSVTGRFTVSRDNAKNTLYLEMSSLRSEDTAIYYCARQLTGTDYYGTDYWGQGTSVTVSS
VL: DVLMTQIPLSLPVSLGDQASISCRSSQSIVYSNGNTYLEWYLQRPGQSPKLLIYKVSNRFSGVPDRFSGSGSGTDFTLKISRVEAEDLGVYYCFQGSHLPYTFGGGTKLEIK
notes: also called recombinant anti-G200 antibody 4E6
In the case of B2, the Kd [1] is reported as 0.9 nM, the binding result [2] is reported as “no binding (tested: 3000 ng/ml)” and the koff [3] is reported as 0.006 s⁻¹. The EC50 [4] was 0.0095 µg/mL.

B3: 7C7, recombinant IgG2c antibody (antibody, V domains shown)
VH: EVQLVESGGGLVKPGGSLRLSCAASGFTFSSFAMSWVRQSPERRLEWVAEISRGGGYAFYSDTVTGRFTISRDNARNTLFLEMGSLRSEDTAMYYCSRQLTGTDYYAMDYWGQGTSVTVSS
VL: DVLLTQTPLSLFVSLGDQASISCRSSQSIVYTNGNTYLEWYLQKPGQSPKLLIYKVSNRFSGVPDRFSGSGSGTDFTLKISRVEAEDLGVYYCFQGSQVPYTFGGGTKLELK
For B3, the Kd [1] was 1.9 nM, the binding result [2] was “no binding (tested: 3000 ng/ml)” and the koff [3] was 0.0029 s⁻¹. The EC50 [4] was 0.0181 µg/mL and the Kd [5] was 417 nM.

B4: 7B10, recombinant IgG2c antibody (antibody, V domains shown)
VH: AVQLVESGGGLVKPGRSLKLSCAASGFTFSSYAMSWVRQFPDKRLDWVAEISSGGGSTNYLDTVTGRFTISRDNAKNTLYLEMNSLRSEDTAMYYCARQLVGTDYYGTDYWGQGTSVTVSS
VL: DVLMTQTPLSLPVSLGDQASISCRSSQNIVYSNGNTYLEWYLQKPGQSPKLLIYKVSNRFSGVPDRFSGSGSGTDFTLKISRVEAEDLGVYYCFQGSHVPYTFGGGTKLEIK
notes: also called 7610
B4 was tested, and the Kd [1] was 0.8 nM, the binding result [2] was “no binding (tested: 3000 ng/ml)” and the koff [3] was 0.0038 s⁻¹. For the same binder, the EC50 [4] was 0.0107 µg/mL and the Kd [5] was 330 nM.

B5: 17G4, recombinant IgG2c antibody (antibody, V domains shown)
VH: EVQLVESGGGLVKPGGSLKLSCSASGFTFSRYAMSWVRQSPEKRLEWVAEINSGGSYSFYSDTVTGRFTISRDNAKNTLFLEMSSLRSEDTAIYYCARQLTGTDYYGTDYWGQGTSVTVSS
VL: DVLMTQTPLSLPVSHGDQASISCRSSQSLLYSNGNTYLEWYLQKPGQSPKLLIYKVSNRFSGVPDRFSGSGSGTDFTLKISRVEAEDLGVYYCFQGSHVPYTFGGGTKLEIK
In the case of B5, the Kd [1] is reported as 0.8 nM, the binding result [2] is reported as “no binding (tested: 3000 ng/ml)” and the koff [3] is reported as 0.0024 s⁻¹. For the same binder, the EC50 [4] was 0.0079 µg/mL and the Kd [5] was 141 nM.

B6: 28F2, recombinant IgG2c antibody (antibody, V domains shown)
VH: QIQLVQSGPDLKKPGETVKISCKASGYTFTNYAMHWMKQAPGKALKWMGWINTYTGEPTFADDFKGRFAFSLETSASTAYLQINSLKNEDMATYFCAREGYYDRSHYFDYWGQGTTLTVSS
VL: DVLMTQTPLSLPVSLGDQASISCRSSLSLVHGDGNTYLEWYLQKPGQSPKLLIYKVSNRFSGVPDRFSGSGSGTDFTLKISRVEAEDLGVYYCLQGSHIPFTFGSGTKLEIK
B6 was tested, and the Kd [1] was 9.7 nM, the binding result [2] was “no binding (tested: 3000 ng/ml)” and the koff [3] was 0.0035 s⁻¹. It also gave an EC50 [4] of 0.0215 µg/mL and a Kd [5] of 9830 nM.
